# T1: cynomolgus 5T4 protein (cynomolgus monkey, UniProt Q4R8Y9 35-355, limits assumed)
# T1 construct: Coated protein in ELISA; the screening step names a cyno 5T4-His protein; also called cyno 5T4; recombinant cyno 5T4-His protein
# T1 sequence (looked up): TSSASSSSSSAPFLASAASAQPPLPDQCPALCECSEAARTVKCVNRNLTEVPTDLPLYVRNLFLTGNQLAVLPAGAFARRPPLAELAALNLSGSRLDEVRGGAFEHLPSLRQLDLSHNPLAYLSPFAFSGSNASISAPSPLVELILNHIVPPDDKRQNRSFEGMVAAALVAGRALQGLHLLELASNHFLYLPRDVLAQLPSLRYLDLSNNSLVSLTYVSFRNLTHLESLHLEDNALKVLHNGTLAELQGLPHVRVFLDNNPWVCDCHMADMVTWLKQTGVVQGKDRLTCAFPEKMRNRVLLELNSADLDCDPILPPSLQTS
# T2: human 5T4-His protein (human, UniProt Q13641 32-355)
# T2 construct: also called recombinant 5T4 protein (human 5T4-his tag); human 5T4 protein; not shown: His tag
# T2 sequence (looked up): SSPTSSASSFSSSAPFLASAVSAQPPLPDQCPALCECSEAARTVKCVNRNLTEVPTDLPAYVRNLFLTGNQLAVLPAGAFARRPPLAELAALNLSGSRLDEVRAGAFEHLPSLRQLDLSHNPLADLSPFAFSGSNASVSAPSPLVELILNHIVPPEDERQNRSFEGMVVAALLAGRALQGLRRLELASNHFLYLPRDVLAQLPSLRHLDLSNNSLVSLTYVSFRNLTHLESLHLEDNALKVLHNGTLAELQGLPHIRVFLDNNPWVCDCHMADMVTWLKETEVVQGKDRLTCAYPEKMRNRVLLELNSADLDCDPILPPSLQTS
# T3: human 5T4 expressed on cells (human, UniProt Q13641 32-420)
# T3 construct: whole, on cells; also called CHOK1-hu5T4; CHO-K1-expressing human 5T4
# T3 sequence (looked up): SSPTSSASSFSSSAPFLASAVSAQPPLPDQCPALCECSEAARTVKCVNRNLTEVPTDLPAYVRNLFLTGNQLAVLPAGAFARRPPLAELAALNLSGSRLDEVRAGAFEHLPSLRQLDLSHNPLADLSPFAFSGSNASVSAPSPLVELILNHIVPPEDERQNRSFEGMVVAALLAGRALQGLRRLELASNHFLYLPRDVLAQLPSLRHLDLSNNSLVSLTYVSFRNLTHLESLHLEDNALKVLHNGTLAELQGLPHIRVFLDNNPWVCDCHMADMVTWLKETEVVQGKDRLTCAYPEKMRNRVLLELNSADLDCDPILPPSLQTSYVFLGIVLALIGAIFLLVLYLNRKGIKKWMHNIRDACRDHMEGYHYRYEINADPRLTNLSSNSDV
# Tests used:
# [1] = molecular target: T1, cynomolgus 5T4 protein; assay: ELISA, coated antigen
# Description: (§1) ELISA testing was carried out to evaluate the binding of chimeric antibodies to human and cynomolgus, respectively. The antibody portion of naptumomab (NeoTX) that targets 5T4 (abbreviated as naptumomab in the present disclosure), was generated and used as a benchmark.
# (§2) Briefly, microtiter plates were coated with human and cynomolgus 5T4 proteins at […] in PBS, 100 μl/well at 4° C. overnight, then blocked with 150 μl/well of 1% BSA. Serial dilutions of chimeric antibodies were added to each well and incubated for 1 hour at RT. The plates were washed with PBS/Tween and then incubate with mouse-anti-human IgG Fc antibody conjugated with Horse Radish Peroxidase (HRP) for 30 mins at RT. After washing, the plates were developed with TMB substrate and analyzed by spectrophotometer at OD 450 nm. All the 5T4 chimeric mAbs bound to human and cynomolgus 5T4 (FIG. 1-2 and Table 3).
# [2] = molecular target: T2, human 5T4-His protein; assay: ELISA, coated antigen
# Description: as §1, §2
# [3] = molecular target: T2, human 5T4-His protein; assay: SPR Biacore, Protein A capture
# [4] = molecular target: T2, human 5T4-His protein; assay: SPR Biacore, Protein A capture, 50 nM 5T4-His
# Description: The binding of the 159D5 humanized antibodies to recombinant 5T4 protein (human 5T4-his tag) was tested with Biacore using a capture method. The mAbs were captured using Protein A chip. 50 nM of human 5T4-his tag protein was injected over captured antibody for 3 mins at a flow rate of 30 μl/min. The antigen was allowed to dissociate for 600 s. All the experiments were carried out on a Biacore T200. Data analysis was carried out using the Biacore T200 evaluation software.
# [5] = molecular target: T2, human 5T4-His protein; assay: ELISA, coated 5T4-His
# Description: To evaluate the binding activity of 159D5 humanized antibodies to human 5T4, the 159D5 chimeric antibody along with 159D5 humanized mAbs were subjected to ELISA test.
# Briefly, microtiter plates were coated with human 5T4-His protein at 1 μg/ml in PBS, 100 μl/well at 4° C. overnight, then blocked with 150 μl/well of 10% BSA. Serial dilutions of antibodies were added to each well and incubated for 1 hour at 37° C. The plates were washed with PBS/Tween and then incubated with Goat Anti-Human IgG-HRP for 30 mins at 37° C. After washing, the plates were developed with TMB substrate and analyzed by spectrophotometer at OD 450 nm. As shown in FIG. 14 and Table 12, most of the humanized antibodies bound to human 5T4 with high activity.
# [6] = molecular target: T3, human 5T4 expressed on cells; assay: flow cytometry, CHOK1-hu5T4 cells
Binder,EC50 [1],EC50 [2],Kd [3],koff [3],kon [3],Kd [4],koff [4],kon [4],EC50 [5],EC50 (read off the curve) [6]
"37G6 chimeric antibody (antibody, V domains shown) VH: QVQLQQPGAELVKPGASVKMSCKASGYTFTSYWITWVKQRPGQGLERIGDIYPGSGTINYNEKFKSKATLTVDTSSSTAYMQLSSLTSEDSAVYCCARSDGNYYFDYWGQGTTLKVSS VL: QIVLSQSPAILSASPGEKVTMTCRASSSVNYMHWYQQKPGSSPKPWIYATSNLASGVPVRFSGSGSGTSYSLTISRVEAEDAATYYCQQWSSNPPTFGGGTKLEIK",0.28 nM,0.13 nM,0.59 nM,0.000486 s⁻¹,823000 M⁻¹ s⁻¹,–,–,–,–,–
"Hu159D5-8 (antibody, V domains shown, humanized) VH: EVQLVESGGGVVQPGRSLRLSCAASGFTFSNFGMHWVRQAPGKGLEWVAYISSGSSTFYYADSVKGRFTISRDNSKNTLYLQMNSLRAEDTAVYFCARSPAYYRYGLDYWGQGTTVTVSS VL: DIVMTQTPLSLSVTPGQPASISCRASQSVSSSTFSYMHWYQQKPGQPPQLLIKSSSNLESGVPDRFSGSGSGTDFTLKISRVEAEDVGVYYCQHSWEIPYTFGGGTKVEIK",–,–,–,–,–,4.19 nM,0.000352 s⁻¹,84000 M⁻¹ s⁻¹,0.15 nM,–
"Hu159D5-5 (antibody, V domains shown, humanized) VH: EVQLVESGGGVVQPGRSLRLSCAASGFTFSNFGMHWVRQAPGKGLEWVAYISSGSSTFYYADSVKGRFTISRDNSKNTLYLQMNSLRAEDTAVYYCARSPAYYRYGLDYWGQGTTVTVSS VL: DIVMTQSPDSLAVSLGERATINCRASQSVSSSTFSYMHWYQQKPGQPPKLLIKSSSNLESGVPDRFSGSGSGTDFTLTISSLQAEDVAVYYCQHSWEIPYTFGGGTKVEIK",–,–,–,–,–,10.1 nM,0.000561 s⁻¹,55600 M⁻¹ s⁻¹,0.099 nM,–
"Hu159D5-6 (antibody, V domains shown, humanized) VH: EVQLVESGGGVVQPGRSLRLSCAASGFTFSNFGMHWVRQAPGKGLEWVAYISSGSSTFYYADSVKGRFTISRDNSKNTLYLQMNSLRAEDTAVYYCARSPAYYRYGLDYWGQGTTVTVSS VL: DIVLTQSPDSLAVSLGERATINCRASQSVSSSTFSYMHWYQQKPGQPPKLLIKSSSNLESGVPDRFSGSGSGTDFTLTISSLQAEDVAVYYCQHSWEIPYTFGGGTKVEIK",–,–,–,–,–,0.71 nM,0.000179 s⁻¹,252000 M⁻¹ s⁻¹,0.1 nM,–
"Hu159D5-12 (antibody, V domains shown, humanized) VH: EVQLVESGGGVVQPGRSLRLSCAASGFTFSNFGMHWVRQAPGKGLEWVAYISSGSSTFYYADSVKGRFTISRDNSKNTLYLQMNSLRAEDTAVYFCARSPAYYRYGLDYWGQGTTVTVSS VL: DIVLTQSPDSLAVSLGERATINCRASQSVSSSTFSYMHWYQQKPGQPPKLLIKSSSNLESGVPDRFSGSGSGTDFTLTISSLQAEDVAVYYCQHSWEIPYTFGGGTKVEIK",–,–,–,–,–,1.21 nM,0.000267 s⁻¹,222000 M⁻¹ s⁻¹,0.12 nM,–
"Hu159D5-11 (antibody, V domains shown, humanized) VH: EVQLVESGGGVVQPGRSLRLSCAASGFTFSNFGMHWVRQAPGKGLEWVAYISSGSSTFYYADSVKGRFTISRDNSKNTLYLQMNSLRAEDTAVYFCARSPAYYRYGLDYWGQGTTVTVSS VL: DIVMTQSPDSLAVSLGERATINCRASQSVSSSTFSYMHWYQQKPGQPPKLLIKSSSNLESGVPDRFSGSGSGTDFTLTISSLQAEDVAVYYCQHSWEIPYTFGGGTKVEIK",–,–,–,–,–,1.06 nM,0.000273 s⁻¹,257000 M⁻¹ s⁻¹,0.12 nM,–
"Hu159D5-10 (antibody, V domains shown, humanized) VH: EVQLVESGGGVVQPGRSLRLSCAASGFTFSNFGMHWVRQAPGKGLEWVAYISSGSSTFYYADSVKGRFTISRDNSKNTLYLQMNSLRAEDTAVYFCARSPAYYRYGLDYWGQGTTVTVSS VL: DIVMTQSPDSLAVSLGERATINCRASQSVSSSTFSYMHWYQQKPGQPPKLLIYSSSNLESGVPDRFSGSGSGTDFTLTISSLQAEDVAVYYCQHSWEIPYTFGGGTKVEIK",–,–,–,–,–,9.31 nM,0.000488 s⁻¹,52400 M⁻¹ s⁻¹,0.094 nM,–
"Hu159D5-9 (antibody, V domains shown, humanized) VH: EVQLVESGGGVVQPGRSLRLSCAASGFTFSNFGMHWVRQAPGKGLEWVAYISSGSSTFYYADSVKGRFTISRDNSKNTLYLQMNSLRAEDTAVYFCARSPAYYRYGLDYWGQGTTVTVSS VL: DIVLTQTPLSLSVTPGQPASISCRASQSVSSSTFSYMHWYQQKPGQPPQLLIKSSSNLESGVPDRFSGSGSGTDFTLKISRVEAEDVGVYYCQHSWEIPYTFGGGTKVEIK",–,–,–,–,–,0.747 nM,0.000221 s⁻¹,295000 M⁻¹ s⁻¹,0.14 nM,–
"Hu159D5-4 (antibody, V domains shown, humanized) VH: EVQLVESGGGVVQPGRSLRLSCAASGFTFSNFGMHWVRQAPGKGLEWVAYISSGSSTFYYADSVKGRFTISRDNSKNTLYLQMNSLRAEDTAVYYCARSPAYYRYGLDYWGQGTTVTVSS VL: DIVMTQSPDSLAVSLGERATINCRASQSVSSSTFSYMHWYQQKPGQPPKLLIYSSSNLESGVPDRFSGSGSGTDFTLTISSLQAEDVAVYYCQHSWEIPYTFGGGTKVEIK",–,–,–,–,–,7.07 nM,0.000426 s⁻¹,60200 M⁻¹ s⁻¹,0.094 nM,–
"trispecific antibody with anti-5T4 portion of Hu393E9-45-P2 (protein, part only; not given: other two arms, Fc, linkers, format, not shown: another chain or arm of the molecule; a dimerising Fc or GST; small tags and cut ends) VH: EVQLVESGGGLVQPGGSLRLSCAASGFTFTDYYMSWVRQAPGKGLEWVGFIRNKGNGYTTEYSASVKGRFTISRDNSKSSLYLQMNSLKTEDTAVYYCARYRGNPHYAMDYWGQGTLVTVSS VL: EIVLTQSPGTLSLSPGERATLSCRASESVEFYGTSFLQWYQQKPGQAPRLLIYGASNVESGIPDRFSGSGSGTDFTLTISRLEPEDIAVYFCQQSRKVPSTFGGGTKVEIK",–,–,–,–,–,–,–,–,–,2 nM
"trispecific antibody with anti-5T4 portion of Hu393E9-62-P2 (protein, part only; not given: other two arms, Fc, linkers, format, not shown: another chain or arm of the molecule; a dimerising Fc or GST; small tags and cut ends) VH: EVQLVESGGGLVQPGGSLRLSCAASGFTFTDYYMSWVRQAPGKGLEWVGFIRNKGNGYTTEYSASVKGRFTISRDNAKSSLYLQMNSLRAEDTAVYYCARYRGNPHYAMDYWGQGTLVTVSS VL: EIVLTQSPATLSVSPGERATLSCRASESVEFYGTSFLQWYQQKPGQAPRLLIYGASNVESGIPARFSGSGSGTEFTLTISSLQSEDIAVYFCQQSRKVPSTFGGGTKVEIK",–,–,–,–,–,–,–,–,–,2 nM
